{"source": "patent US20200062844A1", "about": "(Regeneron, published 2020)", "binders": {"B1": {"name": "bsAb24921D (bispecific antibody, human IgG4 S228P, kappa)", "heavy 1": "QVQVQESGPRLVKPSETLSLTCTVSGGSMSSYYWIWIRQPPGKELEWIGYIYYSGSTNYNPSLKSRATISVDTSKNQFSLNLNSVTAADTAVYYCARRNNWNYVRAFDIWGQGTMVTVSSASTKGPSVFPLAPCSRSTSESTAALGCLVKDYFPEPVTVSWNSGALTSGVHTFPAVLQSSGLYSLSSVVTVPSSSLGTKTYTCNVDHKPSNTKVDKRVESKYGPPCPPCPAPPVAGPSVFLFPPKPKDTLMISRTPEVTCVVVDVSQEDPEVQFNWYVDGVEVHNAKTKPREEQFNSTYRVVSVLTVLHQDWLNGKEYKCKVSNKGLPSSIEKTISKAKGQPREPQVYTLPPSQEEMTKNQVSLTCLVKGFYPSDIAVEWESNGQPENNYKTTPPVLDSDGSFFLYSRLTVDKSRWQEGNVFSCSVMHEALHNHYTQKSLSLSLGK", "heavy 2": "EVQLVESGGGLVQPGRSLRLSCAASGFTFDDYSMHWVRQAPGKGLEWVSGISWNSGSIGYADSVKGRFTISRDNAKNSLYLQMNSLRAEDTALYYCAKYGSGYGKFYYYGMDVWGQGTTVTVSSASTKGPSVFPLAPCSRSTSESTAALGCLVKDYFPEPVTVSWNSGALTSGVHTFPAVLQSSGLYSLSSVVTVPSSSLGTKTYTCNVDHKPSNTKVDKRVESKYGPPCPPCPAPPVAGPSVFLFPPKPKDTLMISRTPEVTCVVVDVSQEDPEVQFNWYVDGVEVHNAKTKPREEQFNSTYRVVSVLTVLHQDWLNGKEYKCKVSNKGLPSSIEKTISKAKGQPREPQVYTLPPSQEEMTKNQVSLTCLVKGFYPSDIAVEWESNGQPENNYKTTPPVLDSDGSFFLYSRLTVDKSRWQEGNVFSCSVMHEALHNRFTQKSLSLSPGK", "light": "not shown", "notes": "IgG4 Fc domain; two distinct heavy chains with a common light chain; also called anti-FcεR1α×CD3 bispecific antibody; FcεR1α × hCD3"}}, "key": {"[1]": {"target": "T1, human CD3 expressed in Jurkat cells (human, UniProt P07766 23-207; P04234 22-171; P20963 22-164; P09693 23-182)", "T1 sequence (P07766 23-207 limits assumed, chain 1 of 4)": "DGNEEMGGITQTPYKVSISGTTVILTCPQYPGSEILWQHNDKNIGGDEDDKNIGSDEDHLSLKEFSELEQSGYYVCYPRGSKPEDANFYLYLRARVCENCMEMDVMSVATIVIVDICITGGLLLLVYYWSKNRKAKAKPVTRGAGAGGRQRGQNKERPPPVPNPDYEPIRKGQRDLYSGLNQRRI", "T1 sequence (P04234 22-171 limits assumed, chain 2 of 4)": "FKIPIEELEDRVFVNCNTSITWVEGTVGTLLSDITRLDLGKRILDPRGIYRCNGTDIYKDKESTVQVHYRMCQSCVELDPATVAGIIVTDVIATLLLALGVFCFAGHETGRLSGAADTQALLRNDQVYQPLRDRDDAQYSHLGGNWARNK", "T1 sequence (P20963 22-164 limits assumed, chain 3 of 4)": "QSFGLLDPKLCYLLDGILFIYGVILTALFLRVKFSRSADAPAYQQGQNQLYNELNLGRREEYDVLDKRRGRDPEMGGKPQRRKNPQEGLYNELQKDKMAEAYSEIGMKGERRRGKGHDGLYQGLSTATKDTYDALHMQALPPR", "T1 sequence (P09693 23-182 limits assumed, chain 4 of 4)": "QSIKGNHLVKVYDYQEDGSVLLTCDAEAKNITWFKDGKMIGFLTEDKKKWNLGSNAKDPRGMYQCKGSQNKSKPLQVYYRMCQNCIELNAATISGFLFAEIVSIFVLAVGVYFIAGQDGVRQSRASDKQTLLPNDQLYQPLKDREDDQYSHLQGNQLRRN", "assay": "cell-based or functional assay"}, "[2]": {"target": "T2, human FcεR1α expressed on cells (human, UniProt P12319 26-257)", "T2 sequence (looked up)": "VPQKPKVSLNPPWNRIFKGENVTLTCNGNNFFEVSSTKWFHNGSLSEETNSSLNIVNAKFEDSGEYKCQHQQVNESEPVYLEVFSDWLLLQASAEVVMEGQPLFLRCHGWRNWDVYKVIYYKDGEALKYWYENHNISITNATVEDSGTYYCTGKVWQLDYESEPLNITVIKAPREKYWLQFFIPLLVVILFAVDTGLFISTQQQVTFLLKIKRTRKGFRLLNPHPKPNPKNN", "assay": "cell-based or functional assay"}, "[3]": {"target": "T2, human FcεR1α expressed on cells", "assay": "cell-based or functional assay", "remark": "listed apart in the source"}, "[4]": {"target": "T1, human CD3 expressed in Jurkat cells", "assay": "flow cytometry, 70 nM antibody on Jurkat/NFAT-luc cells, No IgE", "experimental": "(§1) For flow cytometry analysis, HEK293, HEK293/hFcεR1α/hFcεR1β/hFcεR1γ and HEK293/mf FcεR1α/hFcεR1β/hFcεR1γ cells were collected after dissociation using Enzyme Free Dissociation Buffer (Millipore Cat# S-004), and the cells were pre-incubated with or without 70 nM human IgE, for 30 minutes on ice in FACS buffer (PBS, without Ca⁺⁺ and Mg⁺⁺, (Irvine Scientific, Cat#9240) containing 2% FBS). Jurkat/NFAT-luc cells were also collected. The antibodies at the concentration of 70 nM were then added to 1×10⁶ cells/well of each cell type at 4° C. for 30 minutes. […] Cells were fixed using BD CytoFix™ (Becton Dickinson, Cat. #554655) and analyzed on Accuri™ C6 (BD) or CytoFLEX Flow cytometer (Beckman Coulter). Unstained and secondary antibody alone controls were also tested for all cell lines and a sample was evaluated for viability using the Far Red Fluo viability dye (Thermo Fisher, Cat#L10120) according to the manufacturer's protocol. The results were analyzed using FlowJo software (version 10.0.8, FlowJo) to determine the geometric means of fluorescence for viable cells and the binding ratio was calculated with the mean fluorescence intensity (MFI) of the experimental condition normalized by the MFI of the unstained respective cells."}, "[5]": {"target": "T2, human FcεR1α expressed on cells", "assay": "flow cytometry, 70 nM antibody on HEK293/hFcεR1α/hFcεR1β/hFcεR1γ cells, No IgE", "experimental": "as §1"}, "[6]": {"target": "T3, monkey (cynomolgus) FcεR1α expressed on cells (cynomolgus)", "T3 construct": "range 4-260; On HEK293 cells, co-expressed with human FcεR1β and FcεR1γ; also called mfFcεR1α; HEK293/mfFcεR1α/hFcεR1β/hFcεR1γ cells", "assay": "flow cytometry, 70 nM antibody on HEK293/mfFcεR1α/hFcεR1β/hFcεR1γ cells, No IgE", "experimental": "as §1"}, "[7]": {"target": "T4, hFcεR1α.MMH (human)", "T4 construct": "also called ectodomain of human FcεR1α with C-term myc-myc-6×His tag", "T4 chain": "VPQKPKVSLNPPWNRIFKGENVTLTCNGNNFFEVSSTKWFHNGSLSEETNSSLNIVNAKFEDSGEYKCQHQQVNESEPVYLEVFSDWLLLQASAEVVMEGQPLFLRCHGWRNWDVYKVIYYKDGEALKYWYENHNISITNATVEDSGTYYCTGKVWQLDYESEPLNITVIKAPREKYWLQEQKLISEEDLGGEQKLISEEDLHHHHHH", "assay": "SPR (Biacore 8k), antibody captured on anti-human Fc, hFcεR1α.MMH injected, 25°C", "experimental": "(§2) Equilibrium dissociation constants (KD) for human or cynomolgus FcεR1α ectodomain binding to purified anti-FcεR1α monoclonal antibodies (mAbs) and CD3×FcεR1α bispecific antibodies (bsAbs) were determined using a real-time surface plasmon resonance biosensor (SPR-Biacore), Biacore 8k. All binding studies were performed in 10 mM HEPES, 150 mM NaCl, 3 mM EDTA, and 0.05% v/v surfactant Tween-20, pH 7.4 (HBS-ET) running buffer at 25° C. and 37° C.\n(§3) The Biacore CM4 sensor surface was first derivatized by amine coupling with a monoclonal mouse anti-human Fc antibody to capture approximately 500-900 RUs anti-FcεR1α monoclonal antibodies or anti-CD3×FcεR1α bispecific monoclonal antibodies. 1 RU (response unit) represents 1 pg of protein per mm², as defined by the manufacturer. The ectodomain of human and cynomolgus FcεR1α reagents were expressed with a C-term myc-myc-6×His tag-hFcεR1α.MMH (SEQ ID NO: 57) and mfFcεR1α.MMH (SEQ ID NO: 58). Different concentrations of FcεR1α reagents were prepared in HBS-ET running buffer (600 nM-7.4 nM; serially diluted by 3-fold) and injected over anti-human Fc captured anti-FcεR1α monoclonal antibodies or anti-CD3×FcεR1α bispecific monoclonal antibodies surfaces for 1 minute at a flow rate of 30 μL/minute. The dissociation of bound FcεR1α reagents was monitored for 4 minutes in HBS-ET running buffer. Association (kₐ) and dissociation (kd) rate constants were determined by fitting the real-time binding sensorgrams to a 1:1 binding model with mass transport limitation using Biacore 8k evaluation software. Binding dissociation equilibrium constants (KD) and dissociative half-lives (t½) were calculated from the kinetic rate constants as: […]"}, "[8]": {"target": "T4, hFcεR1α.MMH", "assay": "SPR (Biacore 8k), antibody captured on anti-human Fc, hFcεR1α.MMH injected, 37°C", "experimental": "as §2, §3"}, "[9]": {"target": "T5, mfFcεR1α.MMH (cynomolgus (Macaca fascicularis))", "T5 construct": "also called mfFceR1a.MMH; ectodomain of cynomolgus FcεR1α with C-term myc-myc-6×His tag", "T5 chain": "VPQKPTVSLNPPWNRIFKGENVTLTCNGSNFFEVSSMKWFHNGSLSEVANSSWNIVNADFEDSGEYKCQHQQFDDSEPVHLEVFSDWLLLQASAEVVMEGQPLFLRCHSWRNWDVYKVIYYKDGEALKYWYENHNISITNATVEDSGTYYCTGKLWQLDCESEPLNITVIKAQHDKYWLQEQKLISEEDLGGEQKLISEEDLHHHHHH", "assay": "SPR (Biacore 8k), antibody captured on anti-human Fc, mfFcεR1α.MMH injected, 25°C", "experimental": "as §2, §3"}, "[10]": {"target": "T5, mfFcεR1α.MMH", "assay": "SPR (Biacore 8k), antibody captured on anti-human Fc, mfFcεR1α.MMH injected, 37°C", "experimental": "as §2, §3"}, "[11]": {"target": "T2, human FcεR1α expressed on cells", "assay": "flow cytometry, 70 nM antibody on HEK293/hFcεR1α/hFcεR1β/hFcεR1γ cells pre-incubated with 70 nM human IgE", "experimental": "as §1"}, "[12]": {"target": "T3, monkey (cynomolgus) FcεR1α expressed on …", "assay": "flow cytometry, 70 nM antibody on HEK293/mfFcεR1α/hFcεR1β/hFcεR1γ cells pre-incubated with 70 nM human IgE", "experimental": "as §1"}}}
{"binder": "B1", "values": [{"measurement": "EC50 [M], NFAT-luciferase in Jurkat/NFAT-luc with HEK293/hFcεR1α/hFcεR1β/hFcεR1γ cells, 10 nM IgE", "setting": "[1]", "value": "1.1e-09", "unit": "M"}, {"measurement": "EC50 [M], NFAT-luciferase in Jurkat/NFAT-luc with HEK293/hFcεR1α/hFcεR1β/hFcεR1γ cells, No IgE", "setting": "[1]", "value": "2.3e-10", "unit": "M"}, {"measurement": "Fold Activation, Jurkat/NFAT-luc with HEK293/hFcεR1α/hFcεR1β/hFcεR1γ cells, 10 nM IgE", "setting": "[1]", "value": 27, "unit": "fold"}, {"measurement": "Fold Activation, Jurkat/NFAT-luc with HEK293/hFcεR1α/hFcεR1β/hFcεR1γ cells, No IgE", "setting": "[1]", "value": 24, "unit": "fold"}, {"measurement": "EC80, cleaved caspase 3+ cleaved PARP+ HEK293/hFcεR1α/hFcεR1β/hFcεR1γ target cells with activated CD8+ T cells", "setting": "[2]", "value": 0.0613, "unit": "nM"}, {"measurement": "Maximum percent apoptotic cells, HEK293/hFcεR1α/hFcεR1β/hFcεR1γ target cells with activated CD8+ T cells", "setting": "[2]", "value": 55.8, "unit": "%"}, {"measurement": "EC50, decrease of primary human basophils within PBMC with activated CD8+ T cells", "setting": "[3]", "value": 4, "unit": "nM"}, {"measurement": "Maximum percent basophil decrease, PBMC with activated CD8+ T cells", "setting": "[3]", "value": 90.9, "unit": "%"}, {"measurement": "Binding Ratio (MFI of Treated/MFI of Unstained)", "setting": "[4]", "value": 94}, {"measurement": "Binding Ratio (MFI of Treated/MFI of Unstained)", "setting": "[5]", "value": 253}, {"measurement": "Binding Ratio (MFI of Treated/MFI of Unstained)", "setting": "[6]", "value": 169}, {"measurement": "600 nM hFcεR1α.MMH Bound (RU)", "setting": "[7]", "value": 69, "unit": "RU"}, {"measurement": "Kd", "setting": "[7]", "value": 274, "unit": "nM"}, {"measurement": "koff", "setting": "[7]", "value": 0.0212, "unit": "s⁻¹"}, {"measurement": "kon", "setting": "[7]", "value": 77400, "unit": "M⁻¹ s⁻¹"}, {"measurement": "t½", "setting": "[7]", "value": 32.4, "unit": "s"}, {"measurement": "600 nM hFcεR1α.MMH Bound (RU)", "setting": "[8]", "value": 40, "unit": "RU"}, {"measurement": "Kd", "setting": "[8]", "value": 977, "unit": "nM"}, {"measurement": "koff", "setting": "[8]", "value": 0.0934, "unit": "s⁻¹"}, {"measurement": "kon", "setting": "[8]", "value": 95600, "unit": "M⁻¹ s⁻¹"}, {"measurement": "t½", "setting": "[8]", "value": 7.2, "unit": "s"}, {"measurement": "600 nM mfFceR1a.MMH Bound (RU)", "setting": "[9]", "value": 60, "unit": "RU"}, {"measurement": "Kd", "setting": "[9]", "value": 256, "unit": "nM"}, {"measurement": "koff", "setting": "[9]", "value": 0.0161, "unit": "s⁻¹"}, {"measurement": "kon", "setting": "[9]", "value": 62900, "unit": "M⁻¹ s⁻¹"}, {"measurement": "t½", "setting": "[9]", "value": 42, "unit": "s"}, {"measurement": "600 nM mfFceR1a.MMH Bound (RU)", "setting": "[10]", "value": 37, "unit": "RU"}, {"measurement": "Kd", "setting": "[10]", "value": 520, "unit": "nM"}, {"measurement": "koff", "setting": "[10]", "value": 0.0445, "unit": "s⁻¹"}, {"measurement": "kon", "setting": "[10]", "value": 85600, "unit": "M⁻¹ s⁻¹"}, {"measurement": "t½", "setting": "[10]", "value": 15.6, "unit": "s"}, {"measurement": "Binding Ratio (MFI of Treated/MFI of Unstained)", "setting": "[11]", "value": 295}, {"measurement": "Binding Ratio (MFI of Treated/MFI of Unstained)", "setting": "[12]", "value": 284}]}
